± gives the uncertainty stated by the source.
B1: Histone H1t, residues 44 to 112; numbered along this chain, P22492 (parent)
chain: VSKLITEALSVSQERVGMSLVALKKALAAAGYDVEKNNSRIKLSLKSLVNKGILVQTRGTGASGSFKLS

Variants of: B1
Assay: abundance fitness (aPCA) (normalised: wild type 0, dead -1); higher = more abundant; growth selection in yeast, the domain comes from the species named
Conditions: Homo sapiens

Variant	abundance fitness
R58D	0.022 ± 0.052
R58I	-0.09 ± 0.08
R58L	-0.073 ± 0.031
E7A	-0.996 ± 0.26
E7K	-0.12 ± 0.05
E7F	-0.808 ± 0.038
E7V	-0.826 ± 0.088
E7L	-0.89 ± 0.044
L43V	-0.617 ± 0.38
L43G	-0.061 ± 0.036
L43K	0.181 ± 0.026
L43R	0.049 ± 0.032
L9C	-0.401 ± 0.41
L9F	-0.061 ± 0.027
G52C	-0.01 ± 0.13
G52D	-0.08 ± 0.45
G52L	-0.212 ± 0.03
G52F	-0.184 ± 0.045
G52S	-0.129 ± 0.033
Q56P	-0.026 ± 0.03
Q56G	0.005 ± 0.053
Q56K	0.083 ± 0.029
Q56A	0.212 ± 0.037
G17P	-0.484 ± 0.087

Variant	abundance fitness
G17R	-0.025 ± 0.056
G17T	-0.134 ± 0.054
G17N	0.015 ± 0.057
G17Y	-0.4 ± 0.05
A62G	0.104 ± 0.03
I53E	-0.002 ± 0.053
I53A	-0.118 ± 0.058
I53R	-0.099 ± 0.068
S19A	-0.205 ± 0.071
S19F	-0.043 ± 0.039
S19D	0.08 ± 0.08
S19L	-0.111 ± 0.03
S19E	-0.558 ± 0.083
S19R	-0.224 ± 0.055
S19M	-0.153 ± 0.039
S47M	-0.05 ± 0.066
S47A	-0.049 ± 0.045
S47G	-0.465 ± 0.12
S47N	-0.156 ± 0.22
S47K	-0.191 ± 0.089
S47E	0.232 ± 0.1
S47I	-0.587 ± 0.24
S47T	0.01 ± 0.043
V1A	-0.12 ± 0.35

Variant	abundance fitness
V1P	0.071 ± 0.32
V1L	-0.536 ± 0.17
V1Y	-0.269 ± 0.091
K36C	-0.556 ± 0.07
K36V	-0.46 ± 0.053
K36D	-0.387 ± 0.15
K36A	-0.106 ± 0.047
K36S	-0.25 ± 0.038
K36M	-0.285 ± 0.064
N50L	-0.312 ± 0.043
N50P	-0.076 ± 0.036
N50T	0.018 ± 0.05
N50I	-0.398 ± 0.29
N50R	-0.082 ± 0.038
N50F	-1.1 ± 0.3
N50S	0.092 ± 0.041
K67D	-0.174 ± 0.05
K67A	-0.028 ± 0.037
K67Y	-0.181 ± 0.061
K67M	-0.066 ± 0.041
L4W	-0.506 ± 0.32
S69P	-0.115 ± 0.039
S69Q	-0.102 ± 0.091
S69N	-0.055 ± 0.048

Variant	abundance fitness
S69D	-0.192 ± 0.13
S69F	-0.058 ± 0.075
S69H	-0.465 ± 0.21
S69I	-0.156 ± 0.096
A8Q	-0.584 ± 0.13
A8I	-0.032 ± 0.04
A8R	-0.335 ± 0.056
A8D	-1.13 ± 0.14
V11S	-0.061 ± 0.056
V11F	-0.138 ± 0.035
V11N	-0.144 ± 0.071
V11G	-0.101 ± 0.032
V55S	0.071 ± 0.038
V55P	-0.163 ± 0.062
V55F	-0.114 ± 0.036
V55E	0.027 ± 0.096
D33K	-0.119 ± 0.097
D33V	0.029 ± 0.034
D33I	-0.121 ± 0.075
D33W	0.259 ± 0.098
D33Q	0.042 ± 0.052
D33E	0.2 ± 0.074
D33M	0.115 ± 0.064
D33Y	0.144 ± 0.078

Variant	abundance fitness
G61Q	-0.081 ± 0.043
G61Y	-0.218 ± 0.078
G61N	0.055 ± 0.092
G61K	0.023 ± 0.052
G61M	-0.213 ± 0.048
L20K	-0.239 ± 0.052
L20I	-0.026 ± 0.036
L20Y	0.01 ± 0.035
L20E	-0.046 ± 0.069
L20D	-0.346 ± 0.073
A28F	-0.231 ± 0.033
A28Y	-0.124 ± 0.04
A28R	0.003 ± 0.045
A28G	-0.106 ± 0.035
A28D	-0.258 ± 0.061
A28N	-0.18 ± 0.066
A28W	-0.327 ± 0.032
A28E	-0.197 ± 0.054
A28I	-0.059 ± 0.041
T57G	-0.102 ± 0.063
T57Q	-0.013 ± 0.032
T57P	-0.061 ± 0.03
S44L	-0.108 ± 0.055
S44E	0.175 ± 0.29

Variant	abundance fitness
S44F	-0.298 ± 0.098
S44H	-0.126 ± 0.044
S44V	0.16 ± 0.23
S44T	0.081 ± 0.036
S44N	-0.148 ± 0.043
S44P	-0.636 ± 0.046
S44W	-0.426 ± 0.24
S44I	-0.239 ± 0.072
E35M	-0.157 ± 0.038
E35Q	-0.084 ± 0.04
E35H	-0.137 ± 0.06
E35Y	-0.036 ± 0.065
L27R	-1.12 ± 0.11
L27S	-0.746 ± 0.046
L27W	-0.371 ± 0.063
L27I	-0.116 ± 0.039
L27P	-1.06 ± 0.1
L27T	-0.696 ± 0.059
L27V	-0.202 ± 0.037
N37V	-0.161 ± 0.17
N37W	-0.083 ± 0.38
N37R	0.077 ± 0.18
N37A	0.244 ± 0.36
N37F	-0.178 ± 0.29

Variant	abundance fitness
N37I	0.148 ± 0.16
L54F	-0.036 ± 0.049
L54A	-0.3 ± 0.25
L54T	-0.246 ± 0.1
L54P	-0.083 ± 0.08
L54M	0.062 ± 0.16
L54K	-0.087 ± 0.14
L54Y	-0.311 ± 0.071
S65A	0.031 ± 0.046
S65K	-0.049 ± 0.029
S65R	-0.285 ± 0.03
R40Q	0.024 ± 0.028
Y32K	0.064 ± 0.054
Y32L	0.032 ± 0.028
Y32W	-0.116 ± 0.061
Y32F	-0.072 ± 0.041
Y32C	-0.391 ± 0.089
V49M	0.062 ± 0.044
V49F	-0.056 ± 0.033
V49N	-0.54 ± 0.052
V49Y	-0.135 ± 0.049
V49P	-0.434 ± 0.12
V49Q	-0.323 ± 0.079

— the Human Domainome abundance scans (Beltran et al. 2025)
